{"source": "paper PMC6085627", "target": "Human TLR4/MD-2 complex (human) (UniProt O00206)", "sequence (O00206 24-631, chain 1 of 2)": "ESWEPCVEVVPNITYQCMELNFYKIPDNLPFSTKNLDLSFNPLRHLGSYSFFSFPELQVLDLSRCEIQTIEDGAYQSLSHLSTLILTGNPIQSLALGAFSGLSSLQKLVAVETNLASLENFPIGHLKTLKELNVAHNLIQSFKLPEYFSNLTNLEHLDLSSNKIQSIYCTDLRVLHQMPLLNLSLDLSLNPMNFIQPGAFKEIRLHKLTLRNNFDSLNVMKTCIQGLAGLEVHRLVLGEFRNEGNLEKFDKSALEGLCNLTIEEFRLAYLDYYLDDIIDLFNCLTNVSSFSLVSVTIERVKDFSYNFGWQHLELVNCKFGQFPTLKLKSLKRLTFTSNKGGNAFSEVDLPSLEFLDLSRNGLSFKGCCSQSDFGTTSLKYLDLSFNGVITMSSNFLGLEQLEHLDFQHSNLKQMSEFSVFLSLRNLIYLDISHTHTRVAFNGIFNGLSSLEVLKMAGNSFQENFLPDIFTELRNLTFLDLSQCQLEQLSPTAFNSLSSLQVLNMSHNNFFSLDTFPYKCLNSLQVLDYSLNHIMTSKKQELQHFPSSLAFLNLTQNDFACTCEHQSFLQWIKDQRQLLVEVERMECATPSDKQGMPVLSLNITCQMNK", "sequence (Q9Y6Y9 19-160, chain 2 of 2, further chain)": "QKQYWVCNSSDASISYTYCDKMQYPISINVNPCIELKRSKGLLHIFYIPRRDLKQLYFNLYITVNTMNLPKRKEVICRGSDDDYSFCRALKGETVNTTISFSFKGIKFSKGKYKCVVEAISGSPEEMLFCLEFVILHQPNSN", "experiment": "SPR; Biacore T200; TLR4/MD-2 amine-coupled on CM5 (1100 RU); GST-A-box, GST-B-box (150-5000 nM), A-box or GST injected at 30 μL/min for 60 s, 25 °C, dissociation 1 min; HBS-EP pH 7.4; GST-A-box: association and dissociation fitted separately to a 1:1 model; GST-B-box: steady-state affinity model; apparent KD"}
{"substance": "Recombinant GST-B-box (domain or fragment)", "values": [{"measurement": "Kd", "result": 5.78, "unit": "µM"}]}
